Data from the Human Domainome abundance scans (Beltran et al. 2025).
± gives the uncertainty stated by the source.

B1: Cyclin-F, residues 28 to 80; numbered along this chain, P41002 (parent)
chain: RNLTILSLPEDVLFHILKWLSVEDILAVRAVHSQLKDLVDNHASVWACASFQE

Variants of: B1
Assay: abundance fitness (aPCA) (normalised: wild type 0, dead -1); higher = more abundant; growth selection in yeast, the domain comes from the species named
Settings: Homo sapiens

Variant | abundance fitness
RNLTILSLPEDVLFHILKWLSVEDLLAVRAVHSQLKDLVDNHASVWACASFQE [I25L] | -0.33 ± 0.088
RNLTILSLPEDVLFHILKWLSVEDNLAVRAVHSQLKDLVDNHASVWACASFQE [I25N] | -1.14 ± 0.41
RNLTILSLPEDVLFHILKWLSVEDMLAVRAVHSQLKDLVDNHASVWACASFQE [I25M] | -0.346 ± 0.13
RNLTILSLPEDVLFHILKWLSVEDKLAVRAVHSQLKDLVDNHASVWACASFQE [I25K] | -0.568 ± 0.15
RNLTILSLPEDVLFHILKWLSVEDSLAVRAVHSQLKDLVDNHASVWACASFQE [I25S] | -0.783 ± 0.13
RNLTILSLPEDVLFHILKWLSVEDDLAVRAVHSQLKDLVDNHASVWACASFQE [I25D] | -0.83 ± 0.17
RNLTILSLPEDVLFHILKWLSVEDCLAVRAVHSQLKDLVDNHASVWACASFQE [I25C] | -0.527 ± 0.15
RNLTILSLPEDVLFHILKWLSVEDELAVRAVHSQLKDLVDNHASVWACASFQE [I25E] | -0.809 ± 0.17
RNLTILSLPEDVLFHILKWLSVEDHLAVRAVHSQLKDLVDNHASVWACASFQE [I25H] | -0.82 ± 0.25
RNLTILSLPEDVLFHILKWLSVEDRLAVRAVHSQLKDLVDNHASVWACASFQE [I25R] | -0.534 ± 0.087
RNLTILSLPEDVLFHILKWLSVEDVLAVRAVHSQLKDLVDNHASVWACASFQE [I25V] | -0.292 ± 0.097
RNLTILSLPEDVLFHILKWLSVEDGLAVRAVHSQLKDLVDNHASVWACASFQE [I25G] | -1.08 ± 0.14
RNLTILSLPEDVLFHILKWLSVEDALAVRAVHSQLKDLVDNHASVWACASFQE [I25A] | -0.602 ± 0.1
RNLTILSLPEDVLFHILKWLSVEDPLAVRAVHSQLKDLVDNHASVWACASFQE [I25P] | -0.806 ± 0.15
RNLTILSLPEDVLFHILKWLSVEDYLAVRAVHSQLKDLVDNHASVWACASFQE [I25Y] | -0.971 ± 0.23
RNLTILSLPEDVLFHILKWLSVEDTLAVRAVHSQLKDLVDNHASVWACASFQE [I25T] | -0.703 ± 0.17
RNLTILSLPEDVLFHILKWLSVEDWLAVRAVHSQLKDLVDNHASVWACASFQE [I25W] | -0.41 ± 0.1
RNLTILSLPEDVLFHILKWLSVEDILAVCAVHSQLKDLVDNHASVWACASFQE [R29C] | -0.635 ± 0.19
RNLTILSLPEDVLFHILKWLSVEDILAVEAVHSQLKDLVDNHASVWACASFQE [R29E] | -0.863 ± 0.18
RNLTILSLPEDVLFHILKWLSVEDILAVFAVHSQLKDLVDNHASVWACASFQE [R29F] | -0.574 ± 0.17
RNLTILSLPEDVLFHILKWLSVEDILAVAAVHSQLKDLVDNHASVWACASFQE [R29A] | -0.827 ± 0.19
RNLTILSLPEDVLFHILKWLSVEMILAVRAVHSQLKDLVDNHASVWACASFQE [D24M] | -0.595 ± 0.17
RNLTILSLPEDVLFHILKWLSVEIILAVRAVHSQLKDLVDNHASVWACASFQE [D24I] | -0.684 ± 0.24
RNLTILSLPEDVLFHILKWLSVEYILAVRAVHSQLKDLVDNHASVWACASFQE [D24Y] | -0.544 ± 0.15
RNLTILSLPEDVLFHILKWLSVEFILAVRAVHSQLKDLVDNHASVWACASFQE [D24F] | -1.06 ± 0.34

Variant | abundance fitness
RNLTILSLPEDVLFHILKWLSVENILAVRAVHSQLKDLVDNHASVWACASFQE [D24N] | -1.11 ± 0.21
RNLTILSLPEDVLFHILKWLSVEPILAVRAVHSQLKDLVDNHASVWACASFQE [D24P] | -0.661 ± 0.17
RNLTILSLPEDVLFHILKWLSVELILAVRAVHSQLKDLVDNHASVWACASFQE [D24L] | -0.718 ± 0.11
RNLTILSLPEDVLFHILKWLSVEHILAVRAVHSQLKDLVDNHASVWACASFQE [D24H] | -0.708 ± 0.25
RNLTILSLPEDVLFHILKWLSVESILAVRAVHSQLKDLVDNHASVWACASFQE [D24S] | -0.882 ± 0.12
RNLTILSLPEDVLFHILKWLSVEVILAVRAVHSQLKDLVDNHASVWACASFQE [D24V] | -0.784 ± 0.15
RNLTILSLPEDVLFHILKWLSVEEILAVRAVHSQLKDLVDNHASVWACASFQE [D24E] | -0.388 ± 0.14
RNLTILSLPEDVLFHILKWLSVEGILAVRAVHSQLKDLVDNHASVWACASFQE [D24G] | -0.624 ± 0.1
RNLTILSLPEDVLFHILKWLSVETILAVRAVHSQLKDLVDNHASVWACASFQE [D24T] | -0.68 ± 0.14
RNLTILSLPEDVLFHILKWLSVERILAVRAVHSQLKDLVDNHASVWACASFQE [D24R] | -0.797 ± 0.12
RNLTILSLPEDVLFHILKWLSVEQILAVRAVHSQLKDLVDNHASVWACASFQE [D24Q] | -0.739 ± 0.31
RNLTILSLPEDVLFHILKWLSVEWILAVRAVHSQLKDLVDNHASVWACASFQE [D24W] | -0.717 ± 0.14
RNLTILSLPEDVLFHILKWLSVEKILAVRAVHSQLKDLVDNHASVWACASFQE [D24K] | -0.832 ± 0.2
RNLTILSLPEDVLFHILKWLSVECILAVRAVHSQLKDLVDNHASVWACASFQE [D24C] | -0.716 ± 0.13
RNLTILSLPEDVLFHILKWLSVEAILAVRAVHSQLKDLVDNHASVWACASFQE [D24A] | -0.631 ± 0.13
RNLTILSLPEDVLFHILKWLSVEDILAERAVHSQLKDLVDNHASVWACASFQE [V28E] | -0.82 ± 0.18
RNLTILSLPEDVLFHILKWLSVEDILAKRAVHSQLKDLVDNHASVWACASFQE [V28K] | -0.71 ± 0.2
RNLTILSLPEDVLFHILKWLSVEDILAARAVHSQLKDLVDNHASVWACASFQE [V28A] | -0.774 ± 0.13
RNLTILSLPEDVLFHILKWLSVEDILAWRAVHSQLKDLVDNHASVWACASFQE [V28W] | -0.705 ± 0.13
RNLTILSLPEDVLFHILKWLSVEDILAHRAVHSQLKDLVDNHASVWACASFQE [V28H] | -0.372 ± 0.22
RNLTILSLPEDVLFHILKWLSVEDILAIRAVHSQLKDLVDNHASVWACASFQE [V28I] | -0.184 ± 0.09
RNLTILSLPEDVLFHILKWLSVEDILAPRAVHSQLKDLVDNHASVWACASFQE [V28P] | -0.88 ± 0.15
RNLTILSLPEDVLFHILKWLSVEDILAMRAVHSQLKDLVDNHASVWACASFQE [V28M] | 0.036 ± 0.14
RNLTILSLPEDVLFHILKWLSVEDILACRAVHSQLKDLVDNHASVWACASFQE [V28C] | -0.173 ± 0.17
